# Laboratory results: paper PMC10978839
# B1: SEMA7A: N258Q (protein)
# parent chain: MTPPPPGRAAPSAPRARVPGPPARLGLPLRLRLLLLLWAAAASAQGHLRSGPRIFAVWKGHVGQDRVDFGQTEPHTVLFHEPGSSSVWVGGRGKVYLFDFPEGKNASVRTVNIGSTKGSCLDKRDCENYITLLERRSEGLLACGTNARHPSCWNLVNGTVVPLGEMRGYAPFSPDENSLVLFEGDEVYSTIRKQEYNGKIPRFRRIRGESELYTSDTVMQNPQFIKATIVHQDQAYDDKIYYFFREDNPDKNPEAPLNVSRVAQLCRGDQGGESSLSVSKWNTFLKAMLVCSDAATNKNFNRLQDVFLLPDPSGQWRDTRVYGVFSNPWNYSAVCVYSLGDIDKVFRTSSLKGYHSSLPNPRPGKCLPDQQPIPTETFQVADRHPEVAQRVEPMGPLKTPLFHSKYHYQKVAVHRMQASHGETFHVLYLTTDRGTIHKVVEPGEQEHSFAFNIMEIQPFRRAAAIQTMSLDAERRKLYVSSQWEVSQVPLDLCEVYGGGCHGCLMSRDPYCGWDQGRCISIYSSERSVLQSINPAEPHKECPNPKPDKAPLQKVSLAPNSRYYLSCPMESRHATYSWRHKENVEQSCEPGHQSPNCILFIENLTAQQYGHYFCEAQEGSYFREAQHWQLLPEDGIMAEHLLGHACALAASLWLGVLPTLTLGLLVH
# B2: SEMA7A: N105Q (protein)
# parent chain: B1 parent chain
# B3: SEMA7A: N602Q (protein)
# parent chain: B1 parent chain
# B4: SEMA7A: N330Q (protein)
# parent chain: B1 parent chain
# B5: SEMA7A: N157Q (protein)
# parent chain: B1 parent chain
# B6: SEMA7A: 3NQ (protein)
# parent chain: B1 parent chain
# B7: SEMA7A: tunicamycin (protein)
# parent chain: B1 parent chain
# B8: SEMA7A: PNGase F (protein)
# parent chain: B1 parent chain
# B9: SEMA7A: 5NQ (protein)
# parent chain: B1 parent chain
# Experiments:
# [1] = confocal colocalisation with calreticulin/GM130; membrane trafficking; settings: glycan lost; control: SEMA7A-WT
# [2] = non-reducing vs reducing western blot; settings: glycan lost; control: SEMA7A-WT
# [3] = CHX chase immunoblot, turnover rate; settings: glycan lost
# [4] = immunofluorescence intensity, HN6 and HN30; settings: glycan lost; control: untreated and O-Glycosidase-treated cells
# [5] = CRT expression and nuclear HMGB1 with doxorubicin; settings: glycan lost; control: SEMA7A-WT cells
# [6] = flow cytometry of PD-1, LAG3, CTLA4, TIM3; settings: glycan lost; control: SEMA7A-WT tumor cells
# [7] = cleaved Caspase-3 and proliferation; settings: glycan lost; control: SEMA7A-WT cells
# ELISA of secreted SEMA7A = settings: glycan lost; control: SEMA7A-WT
# cell viability = settings: glycan lost; control: SEMA7A-WT cells
# [8] = IL-2 ELISA after coculture; settings: glycan lost; control: SEMA7A-WT tumor cells
# [9] = CHX plus MG132/HCQ/BTZ, immunoblot; degradation pathway; settings: glycan lost; control: SEMA7A-WT
# [10] = real-time PCR of PD-L1 isoforms; settings: glycan lost; control: SEMA7A-WT cells
# [11] = coculture, Annexin V/PI flow cytometry; settings: glycan lost; control: SEMA7A-WT tumor cells
protein,measurement,setting,value
B1,localisation_or_trafficking,[1],no change
B2,localisation_or_trafficking,[1],no change
B3,localisation_or_trafficking,[1],no change
B4,localisation_or_trafficking,[1],no change
B5,localisation_or_trafficking,[1],no change
B6,oligomerisation,[2],no change
B7,degradation_or_half_life,[3]; control: untreated (endogenous SEMA7A),increases
B8,other: immunofluorescence detection by antibody,[4],increases
B9,degradation_or_half_life,[3]; control: SEMA7A-WT,increases
same,localisation_or_trafficking,[1],decreases
same,other: immunogenic cell death markers,[5],increases
same,other: exhaustion of cocultured CD8+ T cells,[6],decreases
same,other: sensitivity to EGFR inhibitors,[7],increases
same,oligomerisation,[2],abolishes
same,expression_or_secretion,ELISA of secreted SEMA7A,no change
same,other: sensitivity to doxorubicin,cell viability,increases
same,other: IL-2 release by cocultured Jurkat cells,[8],increases
same,degradation_or_half_life,[9],changes
same,other: PD-L1 alternative splicing,[10],changes
same,other: susceptibility to CD8+ T-cell killing,[11],increases
